Tests used:
[1] = biological target: T1, Human EphA2 (ephrin receptor A2) on cells (human, UniProt P29317 25-976); assay: cell-based or functional assay
[2] = biological target: T1, Human EphA2 (ephrin receptor A2) on …; assay: cell-based or functional assay; remark: listed apart in the source
[3] = biological target: T1, Human EphA2 (ephrin receptor A2) on …; assay: flow cytometry on A549 cells
Experimental: (§1) Surface binding of the antibodies to in vitro grown cell lines was assessed by flow cytometry. Tumor cells were detached from their culture plate using Versene and counted. Cells were staining in BSA-containing buffer with primary antibody for 30 minutes at 4° C. with shaking. Following, cells were washed and stained with secondary PE-labeled antibody for 30 minutes at 4° C. with shaking. Before analysis on an Intellicyt iQue3 scanner, cells were counterstained with DAPI. MedFI values from live, single cells was expressed as fold over isotype control.

[4] = biological target: T1, Human EphA2 (ephrin receptor A2) on …; assay: cell-based or functional assay; remark: listed apart in the source
[5] = biological target: T1, Human EphA2 (ephrin receptor A2) on …; assay: cell-based or functional assay; remark: listed apart in the source
[6] = biological target: T2, mouse EphA2 on mouse tumour cells (mouse, UniProt Q03145 26-977); assay: flow cytometry, CT26 cells (in vitro)
T2 construct: whole, on cells
Experimental: as §1

[7] = biological target: T3, EphA4_ECD (aa 23-546), Full ECD, displayed on yeast (human, UniProt P54764 23-546); assay: yeast surface display, flow cytometry titration
T3 construct: also called EphA4 full ECD

[8] = biological target: T2, mouse EphA2 on mouse tumour cells; assay: cell-based or functional assay
[9] = biological target: T4, EphA4 (homologous receptor, screening at Integral Molecular) (human, UniProt P54764 20-986); assay: membrane protein screening on cells
T4 construct: whole, on cells

[10] = biological target: T5, FcGR1 (human, UniProt P12314 16-374); assay: flow cytometry, 6,000 human membrane proteins expressed on HEK293 cells
T5 construct: whole, on cells
T5 sequence (P12314 16-374): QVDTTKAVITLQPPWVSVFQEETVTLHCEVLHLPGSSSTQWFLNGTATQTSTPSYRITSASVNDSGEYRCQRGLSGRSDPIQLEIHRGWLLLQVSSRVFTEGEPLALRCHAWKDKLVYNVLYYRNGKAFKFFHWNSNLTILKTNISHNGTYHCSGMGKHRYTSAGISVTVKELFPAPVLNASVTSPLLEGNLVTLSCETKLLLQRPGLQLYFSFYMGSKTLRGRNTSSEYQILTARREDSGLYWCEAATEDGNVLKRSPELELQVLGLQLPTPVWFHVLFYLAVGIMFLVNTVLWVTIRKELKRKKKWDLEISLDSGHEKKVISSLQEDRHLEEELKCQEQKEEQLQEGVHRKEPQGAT

T1 sequence (P29317 25-976): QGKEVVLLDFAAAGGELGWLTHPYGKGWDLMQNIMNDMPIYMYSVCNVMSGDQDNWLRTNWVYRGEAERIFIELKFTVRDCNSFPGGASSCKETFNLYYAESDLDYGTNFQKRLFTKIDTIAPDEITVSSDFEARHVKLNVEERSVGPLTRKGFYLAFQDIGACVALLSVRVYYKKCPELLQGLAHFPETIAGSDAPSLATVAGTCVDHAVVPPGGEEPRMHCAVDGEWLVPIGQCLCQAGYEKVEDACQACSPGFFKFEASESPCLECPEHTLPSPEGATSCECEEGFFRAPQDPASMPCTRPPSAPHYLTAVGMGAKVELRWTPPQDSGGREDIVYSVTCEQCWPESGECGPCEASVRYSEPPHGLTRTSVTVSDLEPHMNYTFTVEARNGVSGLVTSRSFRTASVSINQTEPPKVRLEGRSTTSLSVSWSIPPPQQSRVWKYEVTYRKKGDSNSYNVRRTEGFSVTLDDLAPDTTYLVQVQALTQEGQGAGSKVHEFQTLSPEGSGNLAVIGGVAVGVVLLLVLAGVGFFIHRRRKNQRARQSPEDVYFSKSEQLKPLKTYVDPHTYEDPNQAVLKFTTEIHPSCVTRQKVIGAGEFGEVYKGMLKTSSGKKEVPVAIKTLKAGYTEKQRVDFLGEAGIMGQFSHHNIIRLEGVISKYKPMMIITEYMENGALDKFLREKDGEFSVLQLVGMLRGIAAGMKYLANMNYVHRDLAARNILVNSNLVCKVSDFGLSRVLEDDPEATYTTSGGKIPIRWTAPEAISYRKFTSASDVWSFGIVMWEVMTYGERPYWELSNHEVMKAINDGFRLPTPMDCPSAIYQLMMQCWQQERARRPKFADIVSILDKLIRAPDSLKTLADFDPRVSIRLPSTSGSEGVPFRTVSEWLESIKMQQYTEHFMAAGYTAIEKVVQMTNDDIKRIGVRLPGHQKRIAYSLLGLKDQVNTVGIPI
T2 sequence (Q03145 26-977): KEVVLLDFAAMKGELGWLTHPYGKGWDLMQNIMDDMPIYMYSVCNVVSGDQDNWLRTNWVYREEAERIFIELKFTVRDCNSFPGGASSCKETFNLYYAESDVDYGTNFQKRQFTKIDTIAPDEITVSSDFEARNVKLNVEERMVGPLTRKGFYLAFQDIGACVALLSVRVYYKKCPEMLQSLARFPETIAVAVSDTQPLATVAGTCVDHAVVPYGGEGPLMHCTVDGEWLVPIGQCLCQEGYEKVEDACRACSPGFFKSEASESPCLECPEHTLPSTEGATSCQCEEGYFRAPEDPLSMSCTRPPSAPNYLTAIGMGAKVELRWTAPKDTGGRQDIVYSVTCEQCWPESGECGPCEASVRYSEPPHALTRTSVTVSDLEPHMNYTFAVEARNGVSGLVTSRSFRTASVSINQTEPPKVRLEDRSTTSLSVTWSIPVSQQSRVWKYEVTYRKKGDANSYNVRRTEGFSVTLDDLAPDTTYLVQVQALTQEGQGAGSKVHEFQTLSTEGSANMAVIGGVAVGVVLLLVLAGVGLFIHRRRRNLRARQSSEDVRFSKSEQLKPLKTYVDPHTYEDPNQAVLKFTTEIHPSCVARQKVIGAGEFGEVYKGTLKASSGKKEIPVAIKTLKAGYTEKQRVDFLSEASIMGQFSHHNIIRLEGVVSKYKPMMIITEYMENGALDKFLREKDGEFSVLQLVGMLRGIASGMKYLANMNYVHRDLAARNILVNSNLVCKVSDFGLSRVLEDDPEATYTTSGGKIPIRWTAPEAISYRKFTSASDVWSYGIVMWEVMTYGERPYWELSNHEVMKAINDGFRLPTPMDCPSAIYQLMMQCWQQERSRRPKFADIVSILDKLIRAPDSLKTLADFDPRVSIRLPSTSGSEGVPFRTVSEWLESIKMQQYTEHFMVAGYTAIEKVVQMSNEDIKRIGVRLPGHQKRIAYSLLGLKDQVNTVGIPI
T4 sequence (P54764 20-986): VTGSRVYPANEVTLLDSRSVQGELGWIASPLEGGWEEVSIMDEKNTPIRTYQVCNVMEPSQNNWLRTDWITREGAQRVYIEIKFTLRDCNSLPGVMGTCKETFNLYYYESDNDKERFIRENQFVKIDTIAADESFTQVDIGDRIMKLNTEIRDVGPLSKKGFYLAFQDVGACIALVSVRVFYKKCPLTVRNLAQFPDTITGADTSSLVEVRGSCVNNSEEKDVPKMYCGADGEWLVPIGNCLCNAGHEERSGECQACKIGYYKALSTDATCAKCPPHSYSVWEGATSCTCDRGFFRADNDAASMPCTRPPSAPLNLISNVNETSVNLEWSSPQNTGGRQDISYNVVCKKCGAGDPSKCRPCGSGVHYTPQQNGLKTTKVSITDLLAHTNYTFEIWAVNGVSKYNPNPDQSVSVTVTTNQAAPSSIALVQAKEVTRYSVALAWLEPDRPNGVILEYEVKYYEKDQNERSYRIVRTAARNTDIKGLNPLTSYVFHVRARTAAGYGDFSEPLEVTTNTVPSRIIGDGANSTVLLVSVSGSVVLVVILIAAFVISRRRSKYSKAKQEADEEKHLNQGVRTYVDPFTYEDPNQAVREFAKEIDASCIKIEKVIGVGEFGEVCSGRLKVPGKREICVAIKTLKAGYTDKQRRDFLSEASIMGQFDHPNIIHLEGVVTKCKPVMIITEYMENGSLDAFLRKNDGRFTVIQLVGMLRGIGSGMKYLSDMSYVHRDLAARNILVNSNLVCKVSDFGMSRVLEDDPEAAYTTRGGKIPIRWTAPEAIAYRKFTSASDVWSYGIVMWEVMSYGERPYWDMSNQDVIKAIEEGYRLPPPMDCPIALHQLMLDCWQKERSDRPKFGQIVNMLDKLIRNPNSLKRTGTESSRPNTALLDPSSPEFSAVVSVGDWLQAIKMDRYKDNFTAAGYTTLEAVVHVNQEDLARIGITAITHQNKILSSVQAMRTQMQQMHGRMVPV
T3 sequence (P54764 23-546 limits assumed): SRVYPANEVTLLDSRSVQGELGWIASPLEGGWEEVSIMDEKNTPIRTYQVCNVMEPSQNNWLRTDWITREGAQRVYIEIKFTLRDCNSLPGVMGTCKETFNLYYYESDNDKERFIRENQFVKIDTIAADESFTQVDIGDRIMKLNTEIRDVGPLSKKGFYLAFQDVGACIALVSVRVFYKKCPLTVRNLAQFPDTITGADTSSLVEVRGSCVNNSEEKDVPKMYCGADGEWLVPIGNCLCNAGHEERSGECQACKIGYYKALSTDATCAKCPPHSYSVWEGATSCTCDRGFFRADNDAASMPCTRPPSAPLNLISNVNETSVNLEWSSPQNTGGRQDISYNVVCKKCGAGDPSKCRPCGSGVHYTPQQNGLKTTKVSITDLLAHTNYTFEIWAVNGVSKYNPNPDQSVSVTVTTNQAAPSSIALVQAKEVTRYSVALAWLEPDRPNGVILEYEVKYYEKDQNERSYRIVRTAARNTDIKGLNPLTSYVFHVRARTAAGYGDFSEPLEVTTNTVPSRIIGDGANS

B1: AB-010699 (antibody, V domains shown)
VH: QVQLQQWGAGLLKPSETLSLTCAVYGGSFSGYYWSWIRQPPGKGLEWIGEINHRGSINYNNYNPSLKSRVTISVDTSKNQFSLKLSSVTAADTAVYYCAKPLRPHCINGVCYSGDAFDIWGQGTMVTVAS
VL: SYVLTQPPSVSVAPGQTARITCGGNNIGYKNVHWYQQKPGQAPVLVVYDDSDRPSGIPERFSGSNSGNTATLTISRVEAGDEADYYCQVWDHSSDHVVFGGGTKLTVL
ADCC - EC50 (nM), Trial 1, A549 [1]: ~0.014 nM
ADCC - EC50 (nM), Trial 2, A549 [1]: 0.0058 nM
EC50 (read off the curve), EphA2 pY588 phosphorylation, soluble agonist titration [2]: ~3e-09 M

B2: AB-009815 (antibody, mouse IgG2a, V domains shown)
VH: QVQLQQWGAGLLKPSETLSLTCAVYGGSFSDYYWSWIRQPPGKGLEWIGEVNHRGSINYNNYNPSLKSRVTISVDTSKNQFSLKLTSVTAADTAVYYCAKPLRPHCTNGVCYSGDAFDIWGQGTMVTVAS
VL: SYVLTQPPSVSVAPGQTARITCGGNNIGSKNVHWYQQKPGQAPVLVVYDDSDRPSGIPEQFSGSNSGNTATLTISRVEAGDEADYYCQVWDSSSDHLVFGGGTKLTVL
EC50 [3]: 5.5 nM
Flow Delta [3]: 745000
ADCC Delta, A549 cells [4]: 59.8
ADCC EC50 (nM), A549 cells [4]: 10.4 nM
EC50 (read off the curve), ADC activity [5]: ~2 nM

B3: AB-008873 (antibody)
heavy: QVQLQQWGAGLLKPSETLSLTCAVYGGSFSDYYWSWIRQPPGKGLEWIGEVNHRGSINYNNYNPSLKSRVTISVDPSKNQFSLKLTSVTAADTAVYYCAKPLRPHCTNGVCYSGDAFDIWGQGTMVTVASAKTTAPSVYPLAPVCGDTTGSSVTLGCLVKGYFPEPVTLTWNSGSLSSGVHTFPAVLQSDLYTLSSSVTVTSSTWPSQSITCNVAHPASSTKVDKKIEPRGPTIKPCPPCKCPAPNLLGGPSVFIFPPKIKDVLMISLSPIVTCVVVDVSEDDPDVQISWFVNNVEVHTAQTQTHREDYNSTLRVVSALPIQHQDWMSGKEFKCKVNNKDLPAPIERTISKPKGSVRAPQVYVLPPPEEEMTKKQVTLTCMVTDFMPEDIYVEWTNNGKTELNYKNTEPVLDSDGSYFMYSKLRVEKKNWVERNSYSCSVVHEGLHNHHTTKSFSRTPG
light: SYVLTQPPSVSVAPGQTARITCGGNNIGSKNVHWYQQKPGQAPVLVVYDDSDRPSGIPEQFSGSNSGNTATLTISRVEAGDEADYYCQVWDSSSDHLVFGGGTKLTVLGQPKSSPSVTLFPPSSEELETNKATLVCTITDFYPGVVTVDWKVDGTPVTQGMETTQPSKQSNNKYMASSYLTLTARAWERHSSYSCQVTHEGHTVEKSLSRADCS
fold (MedFI over isotype control) [6]: 16 fold
binding result [7]: no binding (tested: about 300 nM)
ADCC EC50 (nM), EMT6 cells [8]: > 100 nM
binding result [9]: no binding
binding result [10]: binds

Reference: patent US20250276077A1 (IMMUNOME, published 2025)
